US20210340548A1

Molecular target: Cry2 PHR (L348F)-p65AD-NLSx2 fusion construct as released from the TetR (I194T, 1-206)-CIB1 (-NLS)-T2A-Cry2 PHR (L348F)-p65AD-NLSx2 fusion construct
Assay: cell-based or functional assay

Sequence of Cry2 PHR (L348F)-p65AD-NLSx2 fusion construct as released from the TetR (I194T, 1-206)-CIB1 (-NLS)-T2A-Cry2 PHR (L348F)-p65AD-NLSx2 fusion construct (Q96524 other isoform, or with tags, fused parts or gaps L348F I194T L348F L348F I194T L348F): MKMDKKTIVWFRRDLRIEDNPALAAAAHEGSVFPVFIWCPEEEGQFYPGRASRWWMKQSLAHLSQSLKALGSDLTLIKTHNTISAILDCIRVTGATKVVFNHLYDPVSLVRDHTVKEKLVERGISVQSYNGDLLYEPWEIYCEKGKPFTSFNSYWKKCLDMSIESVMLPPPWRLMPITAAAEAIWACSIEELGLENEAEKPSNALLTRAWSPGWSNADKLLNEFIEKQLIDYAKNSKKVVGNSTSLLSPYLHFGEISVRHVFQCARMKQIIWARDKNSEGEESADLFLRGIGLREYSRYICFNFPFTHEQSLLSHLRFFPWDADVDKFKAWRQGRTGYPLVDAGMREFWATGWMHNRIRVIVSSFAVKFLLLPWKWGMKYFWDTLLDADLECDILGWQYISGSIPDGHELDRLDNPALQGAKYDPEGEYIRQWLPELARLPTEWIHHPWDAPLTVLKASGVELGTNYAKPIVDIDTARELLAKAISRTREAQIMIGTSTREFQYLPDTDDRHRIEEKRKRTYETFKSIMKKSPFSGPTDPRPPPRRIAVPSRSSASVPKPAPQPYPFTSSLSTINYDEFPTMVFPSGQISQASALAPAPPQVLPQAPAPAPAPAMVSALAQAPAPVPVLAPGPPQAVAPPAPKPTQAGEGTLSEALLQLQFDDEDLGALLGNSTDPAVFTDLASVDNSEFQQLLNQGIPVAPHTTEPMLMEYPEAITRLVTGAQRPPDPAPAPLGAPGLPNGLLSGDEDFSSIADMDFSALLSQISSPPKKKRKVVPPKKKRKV

| Binder | Average of the Light/Dark ratio, Dox 0 ng/mL | Average of the Light/Dark ratio, Dox 0 ng/mL, 36 h light | Average of the Light/Dark ratio, Dox 75 ng/mL | Average of the Light/Dark ratio, Dox 500 ng/mL, 36 h light | Light/Dark, Dox 0 ng/mL | Light/Dark, Dox 0 ng/mL, 36 h light | Light/Dark, Dox 75 ng/mL | Light/Dark, Dox 500 ng/mL, 36 h light | Ub-ELuc luciferase, Dark, Dox 0 ng/mL [relative] | Ub-ELuc luciferase, Dark, Dox 0 ng/mL, 36 h light [relative] |
| --- | --- | --- | --- | --- | --- | --- | --- | --- | --- | --- |
| TetR (I194T, 1-206)-CIB1 (-NLS) fusion construct as released from the TetR (I194T, 1-206)-CIB1 (-NLS)-T2A-Cry2 PHR (L348F)-p65AD-NLSx2 fusion construct (protein, part only, residual T2A residues at C-terminus) MARLDKSKVINSALELLNEVGIEGLTTRKLAQKLGVEQPTLYWHVKNKRALLDALAIEMLDRHHTHFCPLEGESWQDFLRNNAKSFRCALLSHRDGAKVHLGTRPTEKQYETLENQLAFLCQQGFSLENALYALSAVGHFTLGCVLEDQEHQVAKEERETPTTDSMPPLLRQAIELFDHQGAEPAFLFGLELITCGLEKQLKCESGSPKKKHMEFNGAIGGDLLLNFPDMSVLERQRAHLKYLNPTFDSPLAGFFADSSMITGGEMDSYLSTAGLNLPMMYGETTVEGDSRLSISPETTLGTGNFKAAKFDTETKDCNEAAKKMTMNRDDLVEEGEEEKSKITEQNNGSTKSIKKMKHKAKKEENNFSNDSSKVTKELEKTDYI | 19 | 2780 | 1.1 | 0.2 | 36.2 | 525 | 0.9 | 0.2 | 4 | 15.4 |
| rTetR (I194T, M2 mutation, 1-206)-CIB1 (-NLS) from the T2A construct (protein, part only; not given: Leftover T2A residues, part only) chain, part: MARLDKSKVINGALELLNGVGIEGLTTRKLAQKLGVEQPTLYWHVKNKRALLDALPIEMLDRHHTHFCPLEGESWQDFLRNNAKSFRCALLSHRDGAKVHLGTRPTEKQYETLENQLAFLCQQGFSLENALYALSAVGHFTLGCVLEEQEHQVAKEERETPTTDSMPPLLRQAIELFDRQGAEPAFLFGLELITCGLEKQLKCESGSPKKKHMEFNGAIGGDLLLNFPDMSVLERQRAHLKYLNPTFDSPLAGFFADSSMITGGEMDSYLSTAGLNLPMMYGETTVEGDSRLSISPETTLGTGNFKAAKFDTETKDCNEAAKKMTMNRDDLVEEGEEEKSKITEQNNGSTKSIKKMKHKAKKEENNFSNDSSKVTKELEKTDYI | 1.4 |  | 31.6 |  | 1.1 |  | 38.4 |  | 0.3 |  |
| rTetR (I194T, S2 mutation, 1-206)-CIB1 (-NLS) from the T2A construct (protein, part only; not given: Leftover T2A residues, part only) chain, part: MARLDKSKVINSALELLNGVGIEGLTTRKLAQKLGVEQPTLYWHVKNKRALLDALPIEMLDRHHTHFCPLEGESWQDFLRNNAKSFRCALLSHRDGAKVHLGTRPTEKQYETLENQLAFLCQQGFSLENALYALSAVGHFTLGCVLEEQEHQVAKEERETPTTDSMPPLLRQAIELFDRQGAEPAFLFGLELITCGLEKQLKCESGSPKKKHMEFNGAIGGDLLLNFPDMSVLERQRAHLKYLNPTFDSPLAGFFADSSMITGGEMDSYLSTAGLNLPMMYGETTVEGDSRLSISPETTLGTGNFKAAKFDTETKDCNEAAKKMTMNRDDLVEEGEEEKSKITEQNNGSTKSIKKMKHKAKKEENNFSNDSSKVTKELEKTDYI | 2.2 |  | 17 |  | 3.1 |  | 3.1 |  | 0.2 |  |

Same assay, conditions: not given

| Binder | Ub-ELuc luciferase, Dark, Dox 75 ng/mL [relative] | Ub-ELuc luciferase, Dark, Dox 500 ng/mL, 36 h light [relative] | Ub-ELuc luciferase, Light, Dox 0 ng/mL [relative] | Ub-ELuc luciferase, Light, Dox 0 ng/mL, 36 h light [relative] | Ub-ELuc luciferase, Light, Dox 75 ng/mL [relative] | Ub-ELuc luciferase, Light, Dox 500 ng/mL, 36 h light [relative] |
| --- | --- | --- | --- | --- | --- | --- |
| TetR (I194T, 1-206)-CIB1 (-NLS) fusion construct as released from the TetR (I194T, 1-206)-CIB1 (-NLS)-T2A-Cry2 PHR (L348F)-p65AD-NLSx2 fusion construct (protein, part only, residual T2A residues at C-terminus) MARLDKSKVINSALELLNEVGIEGLTTRKLAQKLGVEQPTLYWHVKNKRALLDALAIEMLDRHHTHFCPLEGESWQDFLRNNAKSFRCALLSHRDGAKVHLGTRPTEKQYETLENQLAFLCQQGFSLENALYALSAVGHFTLGCVLEDQEHQVAKEERETPTTDSMPPLLRQAIELFDHQGAEPAFLFGLELITCGLEKQLKCESGSPKKKHMEFNGAIGGDLLLNFPDMSVLERQRAHLKYLNPTFDSPLAGFFADSSMITGGEMDSYLSTAGLNLPMMYGETTVEGDSRLSISPETTLGTGNFKAAKFDTETKDCNEAAKKMTMNRDDLVEEGEEEKSKITEQNNGSTKSIKKMKHKAKKEENNFSNDSSKVTKELEKTDYI | 0.1 | 9.9 | 76.7 | 8090 | 0.1 | 1.8 |
| rTetR (I194T, M2 mutation, 1-206)-CIB1 (-NLS) from the T2A construct (protein, part only; not given: Leftover T2A residues, part only) chain, part: MARLDKSKVINGALELLNGVGIEGLTTRKLAQKLGVEQPTLYWHVKNKRALLDALPIEMLDRHHTHFCPLEGESWQDFLRNNAKSFRCALLSHRDGAKVHLGTRPTEKQYETLENQLAFLCQQGFSLENALYALSAVGHFTLGCVLEEQEHQVAKEERETPTTDSMPPLLRQAIELFDRQGAEPAFLFGLELITCGLEKQLKCESGSPKKKHMEFNGAIGGDLLLNFPDMSVLERQRAHLKYLNPTFDSPLAGFFADSSMITGGEMDSYLSTAGLNLPMMYGETTVEGDSRLSISPETTLGTGNFKAAKFDTETKDCNEAAKKMTMNRDDLVEEGEEEKSKITEQNNGSTKSIKKMKHKAKKEENNFSNDSSKVTKELEKTDYI | 0.3 |  | 0.3 |  | 12.7 |  |
| rTetR (I194T, S2 mutation, 1-206)-CIB1 (-NLS) from the T2A construct (protein, part only; not given: Leftover T2A residues, part only) chain, part: MARLDKSKVINSALELLNGVGIEGLTTRKLAQKLGVEQPTLYWHVKNKRALLDALPIEMLDRHHTHFCPLEGESWQDFLRNNAKSFRCALLSHRDGAKVHLGTRPTEKQYETLENQLAFLCQQGFSLENALYALSAVGHFTLGCVLEEQEHQVAKEERETPTTDSMPPLLRQAIELFDRQGAEPAFLFGLELITCGLEKQLKCESGSPKKKHMEFNGAIGGDLLLNFPDMSVLERQRAHLKYLNPTFDSPLAGFFADSSMITGGEMDSYLSTAGLNLPMMYGETTVEGDSRLSISPETTLGTGNFKAAKFDTETKDCNEAAKKMTMNRDDLVEEGEEEKSKITEQNNGSTKSIKKMKHKAKKEENNFSNDSSKVTKELEKTDYI | 0.2 |  | 0.5 |  | 0.7 |  |
